Reference: the RNAGym collection of RNA variant scans (doi:10.7554/elife.80360)

B1: CPEB3 Ribozyme (parent)
chain: GGGGGCCACAGCAGAAGCGUUCACGUCGCGGCCCCUGUCAGAUUCUGGUGAAUCUGCGAAUUCUGCUGU

Variants of: B1
Test: self-cleavage, relative activity (ratio to wild type); higher = more cleavage; co-transcriptional
U20C A51C gave a self-cleavage of 0.259. With U20C A51U the self-cleavage was 0.172. U20C A52G showed a self-cleavage of 0.161. Work on U20C C22A yielded a self-cleavage of 0.201. Variant U20C C24A has a self-cleavage of 0.191. With U20C C24G the self-cleavage was 0.146. In the case of U20C C24U, the self-cleavage is reported as 0.18. For U20C C27A, the self-cleavage was 0.17. In the case of U20C C29G, the self-cleavage is reported as 0.165. With U20C C32G the self-cleavage was 0.218. U20C C32U showed a self-cleavage of 0.248. With U20C C54A the self-cleavage was 0.156. U20C C57A gave a self-cleavage of 0.232. Variant U20C C57U has a self-cleavage of 0.194. U20C C66G showed a self-cleavage of 0.179. U20C G28U gave a self-cleavage of 0.208. U20C G30A gave a self-cleavage of 0.17. U20C G37C showed a self-cleavage of 0.0963. Work on U20C G48C yielded a self-cleavage of 0.229. Variant U20C G50A has a self-cleavage of 0.174. U20C G50C gave a self-cleavage of 0.102. U20C G56C gave a self-cleavage of 0.203. In the case of U20C G56U, the self-cleavage is reported as 0.127. Variant U20C G65C has a self-cleavage of 0.126. Work on U20C G65U yielded a self-cleavage of 0.18. Work on U20C G68C yielded a self-cleavage of 0.211. In the case of U20C G68U, the self-cleavage is reported as 0.195. U20C U21C showed a self-cleavage of 0.197. For U20C U21G, the self-cleavage was 0.211. U20C U36C showed a self-cleavage of 0.159. For U20C U36G, the self-cleavage was 0.116. U20C U43A gave a self-cleavage of 0.227. Variant U20C U43G has a self-cleavage of 0.241. Variant U20C U44C has a self-cleavage of 0.123. U20C U44G showed a self-cleavage of 0.149. For U20C U53A, the self-cleavage was 0.135. Variant U20C U53G has a self-cleavage of 0.167. For U20C U55C, the self-cleavage was 0.139. In the case of U20C U55G, the self-cleavage is reported as 0.203. Variant U20C U61G has a self-cleavage of 0.226. Work on U20C U62A yielded a self-cleavage of 0.133. U20C U62G gave a self-cleavage of 0.278. For U20C U67C, the self-cleavage was 0.131. Variant U20C U69G has a self-cleavage of 0.394. U20G A51C gave a self-cleavage of 0.27. In the case of U20G A51U, the self-cleavage is reported as 0.219. Variant U20G A59C has a self-cleavage of 0.1. With U20G C22U the self-cleavage was 0.141. For U20G C24A, the self-cleavage was 0.128. Work on U20G C27A yielded a self-cleavage of 0.105. For U20G C27G, the self-cleavage was 0.177. With U20G C29U the self-cleavage was 0.137. U20G C32G showed a self-cleavage of 0.179. For U20G C33U, the self-cleavage was 0.145. In the case of U20G C34A, the self-cleavage is reported as 0.223. Work on U20G C57A yielded a self-cleavage of 0.124. U20G C57G showed a self-cleavage of 0.181. For U20G C63A, the self-cleavage was 0.157. Variant U20G C66A has a self-cleavage of 0.23. In the case of U20G C66G, the self-cleavage is reported as 0.15. In the case of U20G G25C, the self-cleavage is reported as 0.227. Work on U20G G28U yielded a self-cleavage of 0.161. With U20G G30C the self-cleavage was 0.212. Work on U20G G30U yielded a self-cleavage of 0.191. Variant U20G G31U has a self-cleavage of 0.128. In the case of U20G G37U, the self-cleavage is reported as 0.182. Work on U20G G48C yielded a self-cleavage of 0.224. Variant U20G G50U has a self-cleavage of 0.239. U20G G58C gave a self-cleavage of 0.099. Variant U20G G65C has a self-cleavage of 0.166. Work on U20G G68U yielded a self-cleavage of 0.183. Variant U20G U21C has a self-cleavage of 0.166. With U20G U26A the self-cleavage was 0.163. With U20G U26G the self-cleavage was 0.123. In the case of U20G U36G, the self-cleavage is reported as 0.16. In the case of U20G U38G, the self-cleavage is reported as 0.123. Variant U20G U43G has a self-cleavage of 0.153. U20G U44A showed a self-cleavage of 0.271. Work on U20G U44C yielded a self-cleavage of 0.199. Variant U20G U46G has a self-cleavage of 0.189. For U20G U61A, the self-cleavage was 0.207. With U20G U62C the self-cleavage was 0.244. With U20G U64A the self-cleavage was 0.152.
